Reference: patent US20020142457A1, “Cell having the potentiality of differentiation into cardiomyocytes” (priority 1999, published 2002)
Ends that are not written are not given here.

B1: FGF-8: fibroblast growth factor 8, cytokine (protein, UniProt P55075 23-233, looked up)
Fibroblast growth factor 8: QEGPGRGPALGRELASLFRAGREPQGVSQQHVREQSLVTDQLSRRLIRTYQLYSRTSGKHVQVLANKRINAMAEDGDPFAKLIVETDTFGSRVRVRGAETGLYICMNKKGKLIAKSNGKGKDCVFTEIVLENNYTALQNAKYEGWYMAFTRKGRPRKGSKTRQHQREVHFMKRLPRGHHTTEQSLRFEFLNYPPFTRSLRGSQRTWAPEPR
B2: midkine: cytokine, amino acid sequence SEQ ID NO:68 (protein, listed as Homo sapiens)
chain: MQHRGFLLLTLLALLALTSAVAKKKDKVKKGGPGSECAEWAWGPCTPSSKDCGVGFREGTCGAQTQRIRCRVPCNWKKEFGADCKYKFENWGACDGGTGTKVRQGTLKKARYNAQCQETIRVTKPCTPKTKAKAKAKKGKGKD
modifications: CDS (1)..(432)
B3: BMP4: bone morphogenic protein 4, cytokine (protein, UniProt P12644 293-408, looked up)
Bone morphogenetic protein 4: SPKHHSQRARKKNKNCRRHSLYVDFSDVGWNDWIVAPPGYQAFYCHGDCPFPLADHLNSTNHAIVQTLVNSVNSSIPKACCVPTELSAISMLYLDEYDKVVLKNYQEMVVEGCGCR

Assays:
[1] = tested on: Nkx2.5/Csx and GATA4 co-forced expressing bone marrow cells (BMSC-Nkx2.5-GATA4); assay: Quantitative PCR of genes expressed in myotubes from BMSC-Nkx2.5-GATA4; type: cell-based, mouse; settings: BMSC-Nkx2.5-GATA4, 5-aza-C 3 μM, cytokine 10 ng/ml
Excerpt: From the myotubes thus obtained, RNAs were collected and genes expressed in the myotubes were subjected to quantitative PCR analysis using the synthetic oligonucleotides represented by SEQ ID NOS:71 to 78.

[2] = tested on: bone marrow cell (BMSC-MesP1); assay: Quantitative PCR of genes expressed in myotube-like cells from BMSC-MesP1; type: cell-based, mouse; settings: BMSC-MesP1, 5-aza-C 3 μM, cytokine 10 ng/ml
Protocol: Next, RNA was recovered from the thus obtained myotube-like cells, and genes expressing in the myotube-like cells were analyzed by quantitative PCR using the synthetic oligonucleotides shown in SEQ ID NOS:71 to 78. As a result, expression of ANP as a gene specific for a myocardium was accelerated by the forced expression of MesP1.

[3] = tested on: mouse bone marrow-derived pluripotent stem cells (BMSC); assay: Quantitative PCR of genes expressed in myotubes from BMSC; type: cell-based; settings: with 5-aza-C 3 μM, cytokine 10 ng/ml
Protocol: RNAs were collected from the myotubes thus obtained. And genes expressed in the myotubes were analyzed with quantitative PCR analysis using the synthetic oligonucleotides represented by SEQ ID NOS:71 to 78. As a result, PDGF or retinoic acid promoted the expression of MyoD and fTnI genes relating to a skeletal muscle but not cTnI or ANP specifically relating to a myocardium. Next, mouse bone marrow-derived pluripotent stem cells (BMSC) having the potential to differentiate into cardiomyocytes were inoculated in a 60-mm culture dish at a density of 2×10^4 cells/ml and cultured using an incubator at 33° C. under 5% of CO2.
RNAs were collected from the myotubes thus obtained. And genes expressed in the myotubes were analyzed with quantitative PCR using the synthetic oligonucleotides represented by SEQ ID NOS:71 to 78. As a result, the FGF-8, ET-1, midkine and BMP4 each individually promoted the expression of cTnI and ANP gene which are myocardium-specific genes.

[4] = tested on: bone marrow cell (BMSC-MesP1); assay: Differentiation of BMSC-MesP1 with cytokines, phase contrast microscope; type: cell-based, mouse; settings: BMSC-MesP1, 5-aza-C 3 μM; cytokine 10 ng/ml; four weeks
Protocol: A mouse bone marrow-derived pluripotent stem cell (BMSC-MesP1) having the potential to differentiate into cardiomyocytes in which the MesP1 gene was forced-expressed was obtained using a retrovirus vector in the same manner as in Example 6, and then the differentiation was induced to examine efficiency of differentiation into cardiomyocytes.
The bone marrow cell (BMSC-MesP1) having the potential to differentiate into cardiomyocytes in which MesP1 was forced expressed was plated into a 60-mm culture dish in a density of 2×10^4 cells/ml and cultured at 33° C. in a 5% CO2-incubator. On the next day, 5-aza-C was added to the culture medium to give a final concentration of 3 μM, followed by culturing under five different conditions, namely (i) addition of FGF-8 to give a final concentration of 10 ng/ml (culture dish N), (ii) addition of ET-1 to give a final concentration of 10 ng/ml (culture dish P), (iii) addition of Midkine to give a final concentration of 10 ng/ml (culture dish Q), (iv) addition of BMP4 to give a final concentration of 10 ng/ml (culture dish R), and (v) no addition (culture dish S).
On the next day, the medium was exchanged with a fresh medium in order to eliminate 5-aza-C from the medium, and then the culturing was continued by adding FGF-8 to the culture dish N to give a final concentration of 10 ng/ml, ET-1 to the culture dish P to give a final concentration of 10 ng/ml, Midkine to the culture dish Q to give a final concentration of 10 ng/ml and BMP4 to the culture dish R to give a final concentration of 10 ng/ml. Two days and 4 days thereafter, the medium exchange and addition of FGF-8, ET-1, Midkine or BMP4 were carried out similarly.
Four weeks after the addition of 5-aza-C, morphology of the cells was observed under a phase contrast microscope. As a result, the number of myotube-like cells was not changed greatly by the forced expression of MesP1. In addition, about 50% of the cells became myotube-like cells in the culture dish to which FGF-8, ET-1, Midkine or BMP4 had been added.

[5] = tested on: Nkx2.5/Csx and GATA4 co-forced expressing bone marrow cells (BMSC-Nkx2.5-GATA4); assay: Differentiation of BMSC-Nkx2.5-GATA4 with cytokines, phase-contrast microscope; type: cell-based, mouse; settings: cytokine 10 ng/ml, four weeks; for cells differentiated into myotubes: BMSC-Nkx2.5-GATA4, 5-aza-C 3 μM in all dishes; for beating cardiomyocytes: BMSC-Nkx2.5-GATA4, 5-aza-C 3 μM
Protocol: The Nkx2.5/Csx and GATA4 co-forced expressing bone marrow cells (BMSC-Nkx2.5-GATA4) having the potential to differentiate into cardiomyocytes were plated into a 60-mm culture dish at a density of 2×10^4 cells/ml and cultured at 33° C. in a 5% CO2-incubator.
On the next day, 5-aza-C was added to the culture medium to give a final concentration of 3 μM. Furthermore, 5 treatments differing from each other were carried out by adding FGF-8 to give a final concentration of 10 ng/ml (culture dish I); adding ET-1 to give a final concentration of 10 ng/ml (culture dish J); adding midkine to give a final concentration of 10 ng/ml (culture dish K); adding BMP4 to give a final concentration of 10 ng/ml (culture dish L); and adding nothing (culture dish M), followed by culturing.
On the next day, the medium was replaced with a fresh medium to eliminate 5-aza-C. Then, FGF-8 was added to the culture dish I to give a final concentration of 10 ng/ml; ET-1 was added to the culture dish J to give a final concentration of 10 ng/ml; midkine was added to the culture dish K to give a final concentration of 10 ng/ml; and BMP4 was added to the culture dish L to give a final concentration of 10 ng/ml, followed by culturing. Two and four days thereafter, furthermore, the medium was replaced, and the FGF-8, ET-1, midkine or BMP4 was added.
As a result, about 30% of the cells in the culture dish containing 5-aza-C alone were converted into myotubes, while about 50% of the cells in the culture dishes containing FGF-8, ET-1, midkine or BMP4 differentiated into myotubes respectively. On the other hand, the addition of FGF-8, ET-1, midkine or BMP4 caused no increase in beating cardiomyocytes.

| Molecule | expression of cTnI and ANP promoted by forced expression of Nkx2.5/Csx and GATA4 [1] | expression of ANP accelerated by the forced expression of MesP1 [2] | expression of cTnI and ANP gene (myocardium-specific genes) [3] | cells became myotube-like cells [4] | cells differentiated into myotubes [5] | beating cardiomyocytes [5] |
| --- | --- | --- | --- | --- | --- | --- |
| ET-1: endothelin 1, cytokine (CSCSSLMDKECVYFCHLDIIW; ends and bridges not checked; cysteine pairing not given here; UniProt P05305 53-73, looked up) | did not further promote | did not further accelerate | promoted | about 50% | about 50% | no increase |
| B1 | did not further promote | did not further accelerate | promoted | about 50% | about 50% | no increase |
| B2 | did not further promote | did not further accelerate | promoted | about 50% | about 50% | no increase |
| B3 | did not further promote | did not further accelerate | promoted | about 50% | about 50% | no increase |
